# According to patent publication US20140179604A1 (U S A REPRESENTED BY THE DEPARTMENT OF VETERANS AFFAIRS, published 2014):
# Non-standard residues stand in square brackets, D forms with d. No end group written: not given here. *: point of attachment. NMeY = CN[C@@H](Cc1ccc(O)cc1)C(=O)O; Agmatine = N=C(N)NCCCCN*; Nle = CCCC[C@H](N)C(=O)O; Orn = NCCC[C@H](N)C(=O)O; Abu = CC[C@H](N)C(=O)O; Aoc = NCCCCCCCC(=O)O; Ava = NCCCCC(=O)O
# T1: GHRH receptor (membrane receptors of human anterior pituitary cells) (human) (UniProt Q02643)
# T1 sequence (looked up): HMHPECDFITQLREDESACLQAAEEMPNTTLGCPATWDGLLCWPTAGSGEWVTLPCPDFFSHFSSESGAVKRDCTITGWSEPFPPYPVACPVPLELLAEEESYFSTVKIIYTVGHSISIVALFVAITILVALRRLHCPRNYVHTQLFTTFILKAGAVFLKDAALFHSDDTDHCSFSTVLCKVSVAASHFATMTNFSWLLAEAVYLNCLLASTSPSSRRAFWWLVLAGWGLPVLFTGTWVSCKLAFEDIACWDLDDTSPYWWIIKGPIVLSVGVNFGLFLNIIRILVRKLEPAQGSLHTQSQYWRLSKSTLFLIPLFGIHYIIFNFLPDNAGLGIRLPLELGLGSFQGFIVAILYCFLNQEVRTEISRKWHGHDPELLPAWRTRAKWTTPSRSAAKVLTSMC
# T2: GHRH receptor (membrane receptors of human anterior pituitary cells) (human, UniProt Q02643 23-423)
# T2 construct: whole, on cells; Native receptor in a membrane fraction of purchased normal human pituitaries, not intact cells; also called hGHRH receptor; human pituitary membrane homogenates
# T2 sequence (looked up): T1 sequence (looked up)
# B1: P-21301 [N-Me-Tyr^1, Orn^12, Abu^15, Orn^21, Nle^27, Asp^28, Amc^30]hGHRH(1-30)NH2 (peptide, from a related filing)
# peptide: [NMeY]ADAIFTNSYR[Orn]VL[Abu]QLSAR[Orn]LLQDI[Nle]DR[Aoc]-NH2
# modifications: N-terminus assumed
# SMILES: CCCC[C@H](NC(=O)[C@@H](NC(=O)[C@H](CC(=O)O)NC(=O)[C@H](CCC(N)=O)NC(=O)[C@H](CC(C)C)NC(=O)[C@H](CC(C)C)NC(=O)[C@H](CCCN)NC(=O)[C@H](CCCNC(=N)N)NC(=O)[C@H](C)NC(=O)[C@H](CO)NC(=O)[C@H](CC(C)C)NC(=O)[C@H](CCC(N)=O)NC(=O)[C@H](CC)NC(=O)[C@H](CC(C)C)NC(=O)[C@@H](NC(=O)[C@H](CCCN)NC(=O)[C@H](CCCNC(=N)N)NC(=O)[C@H](Cc1ccc(O)cc1)NC(=O)[C@H](CO)NC(=O)[C@H](CC(N)=O)NC(=O)[C@@H](NC(=O)[C@H](Cc1ccccc1)NC(=O)[C@@H](NC(=O)[C@H](C)NC(=O)[C@H](CC(=O)O)NC(=O)[C@H](C)NC(=O)[C@H](Cc1ccc(O)cc1)NC)[C@@H](C)CC)[C@@H](C)O)C(C)C)[C@@H](C)CC)C(=O)N[C@@H](CC(=O)O)C(=O)N[C@@H](CCCNC(=N)N)C(=O)NCCCCCCCC(N)=O
# B2: P-27415 [N-Me-Tyr^1, Orn^12, Abu^15, Orn^21, Nle^27, Gab^30]hGHRH(1-30)NH-CH3 (peptide, from a related filing)
# peptide: YADAIFTNSYRKVLGQLSARKLLQDIMSRQ
# modifications: N-Me-Tyr^1; Orn^12; Abu^15; Orn^21; Nle^27; Gab^30 (in place of Gln^30); C-terminal -NH-CH3
# B3: P-22325 [N-Me-Tyr^1, Gln^8, Orn^12, Abu^15, Orn^21, Nle^27, Asp^28, Apa^30]hGHRH(1-30)NH2 (peptide, from a related filing)
# peptide: [NMeY]ADAIFTQSYR[Orn]VL[Abu]QLSAR[Orn]LLQDI[Nle]DR[Ava]-NH2
# modifications: N-terminus assumed
# SMILES: CCCC[C@H](NC(=O)[C@@H](NC(=O)[C@H](CC(=O)O)NC(=O)[C@H](CCC(N)=O)NC(=O)[C@H](CC(C)C)NC(=O)[C@H](CC(C)C)NC(=O)[C@H](CCCN)NC(=O)[C@H](CCCNC(=N)N)NC(=O)[C@H](C)NC(=O)[C@H](CO)NC(=O)[C@H](CC(C)C)NC(=O)[C@H](CCC(N)=O)NC(=O)[C@H](CC)NC(=O)[C@H](CC(C)C)NC(=O)[C@@H](NC(=O)[C@H](CCCN)NC(=O)[C@H](CCCNC(=N)N)NC(=O)[C@H](Cc1ccc(O)cc1)NC(=O)[C@H](CO)NC(=O)[C@H](CCC(N)=O)NC(=O)[C@@H](NC(=O)[C@H](Cc1ccccc1)NC(=O)[C@@H](NC(=O)[C@H](C)NC(=O)[C@H](CC(=O)O)NC(=O)[C@H](C)NC(=O)[C@H](Cc1ccc(O)cc1)NC)[C@@H](C)CC)[C@@H](C)O)C(C)C)[C@@H](C)CC)C(=O)N[C@@H](CC(=O)O)C(=O)N[C@@H](CCCNC(=N)N)C(=O)NCCCCC(N)=O
# B4: P-25503 [N-Me-Tyr^1, Abu^2, Orn^12, Abu^15, Orn^21, Nle^27, Gab^30]hGHRH(1-30)NH2 (peptide, from a related filing)
# peptide: B2 peptide
# modifications: N-Me-Tyr^1; Abu^2; Orn^12; Abu^15; Orn^21; Nle^27; Gab^30 (in place of Gln^30); C-terminal -NH2
# Target: T1, GHRH receptor (membrane receptors of human anterior pituitary cells) (human)
# Test: competition with 125I-JV-1-42, human pituitary membranes
IC50,Relative affinity (Binding potency) vs JI-38,Binder
2.99 nM,1.45 JI-38 = 1,B1
3.02 nM,1.44 JI-38 = 1,B2
3.8 nM,1.14 JI-38 = 1,B3
1.18 nM,3.67 JI-38 = 1,B4

# Target: T2, GHRH receptor (membrane receptors of …)
# Test: as above
# Excerpt: Normal human pituitaries were purchased from the National Hormone and Peptide Program (A. F. Parlow, Los Angeles, County Harbor-UCLA Medical Center, Torrance, Calif.).
IC50,Relative affinity (Binding potency) vs JI-38,Binder
0.82 nM,5.3 JI-38 = 1,"[NMeY][dA]DAIFTQSYR[Orn]VL[Abu]QLSAR[Orn]LLQDI[Nle]D[Agmatine] (also called Peptide 20361) [P-20361 [N-Me-Tyr^1, D-Ala^2, Gln^8, Orn^12, Abu^15, Orn^21, Nle^27, Asp^28, Agm^29]hGHRH(1-29)NH2]"

# Target: T2, GHRH receptor (membrane receptors of …)
# Test: competition with 125I-[His1,Nle27]hGHRH(1-32)NH2, human pituitary membranes
# Excerpt: Normal human pituitary was purchased from the National Hormone and Peptide Program (UCLA Medical Center, Torrance, Calif.).
IC50,Relative affinity (Binding potency) compared to JI-38,Relative affinity (Binding potency) compared to hGHRH(1-29),Binder
1.19 nM,2.3 JI-38 = 1,6.42 hGHRH(1-29)NH2 = 1,"[NMeY][dA]DAIFTQSYR[Orn]VL[Abu]QLSAR[Orn]LLQDI[Nle]D[Agmatine] (also called Peptide 20361) [P-20361 [N-Me-Tyr^1, D-Ala^2, Gln^8, Orn^12, Abu^15, Orn^21, Nle^27, Asp^28, Agm^29]hGHRH(1-29)NH2]"
